Data published in patent publication US20240100181A1 (AbbVie / Abbott, published 2024).

T1: human CD19 (human, UniProt P15391 20-556)
T1 sequence (looked up): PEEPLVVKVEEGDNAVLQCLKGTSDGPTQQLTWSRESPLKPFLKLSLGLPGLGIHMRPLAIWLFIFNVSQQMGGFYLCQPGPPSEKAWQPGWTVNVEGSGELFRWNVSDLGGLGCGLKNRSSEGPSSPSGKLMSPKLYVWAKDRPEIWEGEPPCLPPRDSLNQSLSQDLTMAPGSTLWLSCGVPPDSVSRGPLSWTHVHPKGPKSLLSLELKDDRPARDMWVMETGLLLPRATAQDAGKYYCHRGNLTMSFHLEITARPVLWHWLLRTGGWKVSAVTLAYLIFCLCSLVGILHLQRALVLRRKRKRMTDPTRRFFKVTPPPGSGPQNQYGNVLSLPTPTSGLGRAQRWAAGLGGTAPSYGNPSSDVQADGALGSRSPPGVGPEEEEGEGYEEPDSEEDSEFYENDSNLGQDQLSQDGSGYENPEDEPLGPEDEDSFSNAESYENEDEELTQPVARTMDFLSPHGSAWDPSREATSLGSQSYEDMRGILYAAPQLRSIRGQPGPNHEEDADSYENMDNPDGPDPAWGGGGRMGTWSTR


Columns and labels:
human CD19 [1] = molecular target: T1, human CD19; assay: cell-based or functional assay
[2] = molecular target: FcγRIIIa F158 variant (low-affinity allotype) (human, UniProt P08637 17-254); assay: cell-based or functional assay
Chain of FcγRIIIa F158 variant (low-affinity allotype) (P08637 17-254, change not shown): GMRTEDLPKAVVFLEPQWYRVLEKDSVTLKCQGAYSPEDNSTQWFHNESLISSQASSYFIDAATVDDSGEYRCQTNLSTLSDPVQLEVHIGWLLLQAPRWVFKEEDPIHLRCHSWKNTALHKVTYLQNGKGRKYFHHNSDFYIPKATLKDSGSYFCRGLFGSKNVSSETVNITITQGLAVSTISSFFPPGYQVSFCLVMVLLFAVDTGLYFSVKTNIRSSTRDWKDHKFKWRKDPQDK

[3] = molecular target: FcγRIIIa V158 variant (high-affinity allotype) (human, UniProt P08637 17-254); assay: cell-based or functional assay
Chain of FcγRIIIa V158 variant (high-affinity allotype) (P08637 other isoform, or with tags, fused parts or gaps mutant limits assumed): as the sequence (P08637 17-254, change not shown) above, with F160V counted along it

human CD19 [4] = molecular target: T1, human CD19; assay: cell-based or functional assay; remark: listed apart in the source
human CD19 [5] = molecular target: T1, human CD19; assay: flow cytometry on RS4; 11 (ALL) cells, endogenous CD19; average of two experiments
human CD19 [6] = molecular target: T1, human CD19; assay: flow cytometry on Raji (BL) cells, endogenous CD19; average of two experiments
human CD19 [7] = molecular target: T1, human CD19; assay: flow cytometry on SUP-B15 (ALL) cells, endogenous CD19; average of two experiments
human CD19 [8] = molecular target: T1, human CD19; assay: flow cytometry on OCI-LY19 (DLBCL) cells, endogenous CD19; average of two experiments

Row | anti-proliferative assay EC50, KARPAS422 (DLBCL) (human CD19 [1]) | anti-proliferative assay EC50, OCI-LY19 (DLBCL) (human CD19 [1]) | anti-proliferative assay EC50, RS4; 11 (ALL) (human CD19 [1]) | anti-proliferative assay EC50, SU-DHL-6 (DLBCL) (human CD19 [1]) | anti-proliferative assay EC50, SUP-B15 (ALL) (human CD19 [1]) | ADCC NFAT reporter activation (Jurkat reporter cells, Raji target cells) [2] | ADCC NFAT reporter activation (Jurkat reporter cells, Raji target cells) [3] | PBMC co-culture ADCC, specific lysis EC50 (RS4; 11, Raji, KARPAS422) (human CD19 [4]) | EC50 (human CD19 [5]) | EC50 (human CD19 [6]) | EC50 (human CD19 [7]) | EC50 (human CD19 [8]) | Binder
1 | 210 pM | 103000 pM | 82 pM | 311 pM | 321 pM | 0.018 nM | 0.017 nM | 70 to 142 pM |  |  |  |  | ADC-1 (CD19 Phosphorylated GRM agonist ADC: CD19 mAb conjugated to the drug linker of Formula V) (other, zero or one phosphate-GRM drug linker molecule (Formula V) attached via cysteine -S-; cysteine position not stated; afucosylated at ASN-300 (EU: ASN-297); zero, one, two or three phosphate-GRM drug linker molecules (Formula V, Ala-Ala linker) attached via cysteine -S-; cysteine positions not stated) heavy: EVQLVESGGGLVQPGGSLRLSCAASGFTFTTYWINWVRQAPGKGLEWIGNIYPSDSYTNYNQKFKDRATLSVDKSKNTAYLQMNSLRAEDTAVYYCTREDYYGSSSYYAMDYWGQGTLVTVSSASTKGPSVFPLAPSSKSTSGGTAALGCLVKDYFPEPVTVSWNSGALTSGVHTFPAVLQSSGLYSLSSVVTVPSSSLGTQTYICNVNHKPSNTKVDKKVEPKSCDKTHTCPPCPAPELLGGPSVFLFPPKPKDTLMISRTPEVTCVVVDVSHEDPEVKFNWYVDGVEVHNAKTKPREEQYNGSTYRVVSVLTVLHQDWLNGKEYKCKVSNKALPAPIEKTISKAKGQPREPQVYTLPPSREEMTKNQVSLTCLVKGFYPSDIAVEWESNGQPENNYKTTPPVLDSDGSFFLYSKLTVDKSRWQQGNVFSCSVMHEALHNHYTQKSLSLSPGK light: AILMTQSPSSLSASVGDRVTITCKASQDVGTAVAWYQQKPGKAPKLLIYWASTRHTGVPSRFSGSGSGTDFTLTISSLQPEDFATYYCQQYSTYPLTFGQGTKVEIKRTVAAPSVFIFPPSDEQLKSGTASVVCLLNNFYPREAKVQWKVDNALQSGNSQESVTEQDSKDSTYSLSSTLTLSKADYEKHKVYACEVTHQGLSSPVTKSFNRGEC
2 |  |  |  |  |  | 0.023 nM | 0.027 nM |  | 401 pM | 713 pM | 683 pM | 836 pM | CD19 mAb (humanized, afucosylated anti-CD19 IgG1 kappa monoclonal antibody of Example 1) (antibody, afucosylated N-glycan at ASN-300 (EU: ASN-297), greater than or equal to 90% afucosylated, Human IgG1, kappa; Made in CHO cells expressing Pseudomonas RMD; also called CD19 antibody; humanized anti-CD19 antibody) heavy: EVQLVESGGGLVQPGGSLRLSCAASGFTFTTYWINWVRQAPGKGLEWIGNIYPSDSYTNYNQKFKDRATLSVDKSKNTAYLQMNSLRAEDTAVYYCTREDYYGSSSYYAMDYWGQGTLVTVSSASTKGPSVFPLAPSSKSTSGGTAALGCLVKDYFPEPVTVSWNSGALTSGVHTFPAVLQSSGLYSLSSVVTVPSSSLGTQTYICNVNHKPSNTKVDKKVEPKSCDKTHTCPPCPAPELLGGPSVFLFPPKPKDTLMISRTPEVTCVVVDVSHEDPEVKFNWYVDGVEVHNAKTKPREEQYNGSTYRVVSVLTVLHQDWLNGKEYKCKVSNKALPAPIEKTISKAKGQPREPQVYTLPPSREEMTKNQVSLTCLVKGFYPSDIAVEWESNGQPENNYKTTPPVLDSDGSFFLYSKLTVDKSRWQQGNVFSCSVMHEALHNHYTQKSLSLSPGK light: AILMTQSPSSLSASVGDRVTITCKASQDVGTAVAWYQQKPGKAPKLLIYWASTRHTGVPSRFSGSGSGTDFTLTISSLQPEDFATYYCQQYSTYPLTFGQGTKVEIKRTVAAPSVFIFPPSDEQLKSGTASVVCLLNNFYPREAKVQWKVDNALQSGNSQESVTEQDSKDSTYSLSSTLTLSKADYEKHKVYACEVTHQGLSSPVTKSFNRGEC
